Results as given in the supplement of paper PMC10567573.

B1: CHMP4C (parent)
chain: SSKSRAAPSPQEALVRLRETEEML
B2: SLC35F2 (parent)
chain: FVAFALCMFCLYSFMPLVIKVTSA

Variants of: B1
Assay: protein stability index of a GFP-peptide fusion (GPS, HEK-293T) (PSI 1-6); higher = more stable
Conditions: c terminus: a fixed tail appended
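Note: lentivirally expressed fusions sorted by FACS into six bins by GFP to DsRed ratio, PSI derived from sequencing read proportions per bin multiplied by bin number.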

Protein stability index, by site and new letter:
E21: Q 3.95 | M 4.23 | G 3.63 | S 4.09 | D 4 | F 3.21 | Y 2.3 | N 4.49 | T 2.81 | A 4.28 | W 2.39 | I 2.83
Q11: T 1.16 | A 2.68 | C 1.78 | K 1.9 | P 3.7 | V 3.06 | F 1.01
A7: K 1.45 | V 2.56 | P 1.03 | T 4.48 | M 3.21 | Q 2.32
L17: R 5.53 | E 5.68 | H 4.79 | G 5.31 | S 5.01 | I 1.76 | N 4.59 | F 4.28 | T 5.6 | A 4.71 | Y 4.4
E12: H 3.06 | S 2.06 | F 2.75 | K 4.3 | W 2.67 | M 2.05 | V 2.81 | C 2.96 | G 2.23 | L 3.27
S4: D 1.4 | T 2.58
M23: F 2.24 | A 2.07 | W 1.55 | Q 2.38 | D 4.26 | H 4.34 | Y 1.41 | T 3.55 | S 3.95 | K 2.15 | E 2.08 | P 4.44
A6: H 1.28 | K 1.8 | I 2.15 | N 1.61 | R 1.96 | F 2.83 | D 1.81 | Y 4.65
P8: Q 1.95 | C 1.87 | W 2.56 | N 2.54 | L 2.46 | V 4
S1: V 3.02 | N 2.38 | H 1.97 | E 1.3
V15: P 4.34 | M 2.17 | D 1.85 | S 2.18 | Q 3.07 | K 2.48
R5: C 1.78 | D 2.36 | G 1.3 | L 1.48 | T 2.17
A13: Y 2.3 | D 5.58 | L 2.06 | G 3.34 | W 3.33 | C 1.82 | H 3.99 | K 4.47 | Q 4.8
R18: N 1.8 | Y 2.45 | S 2.17 | P 5.12 | L 4.8 | F 1.83 | H 5.68 | E 4.89 | K 2.15 | A 1.51 | Q 2.57 | D 5.46
K3: T 1.79 | W 1.74 | A 1.97 | D 3.17
P10: K 4.6 | S 3.85 | V 1.81 | W 1.67 | Q 4.58 | E 3.41 | R 4.01 | N 4.79 | C 3.05 | T 4.26 | Y 2.99 | H 4.21
L14: R 2.92 | K 4.46 | D 4.96 | V 3 | M 2.41 | H 4.46 | W 1.42 | T 4.6 | I 2.32 | P 5.2 | C 2.06 | Y 2.49 | A 3.39 | F 4.77 | S 4.33
R16: W 2.45 | D 1.98 | H 1.63 | E 2.24 | G 3.79 | T 4.39 | Q 2.49 | Y 2.22
T20: I 3.27 | V 3.14 | Q 4.83 | C 4.19 | D 2.08 | P 5.12 | W 3.45
S2: E 1.86 | C 2.38 | T 1.78 | A 2.44
S9: A 2.38 | R 3.19 | T 1.94 | V 3.85 | I 3.22 | D 1.51 | C 1.54
L24: W 3.92 | S 4.53 | H 4.37 | R 4.22 | I 2.52 | F 4.25 | M 3.11 | Y 3.64 | N 5.32 | Q 5.69 | E 5.94 | D 5.37 | G 4.97 | T 3.92
E19: Q 1 | K 3.19 | W 2.36 | H 2.9 | S 3.01 | I 4.1 | C 2.66 | P 4.63 | R 3.52 | N 2.27 | A 2.6 | Y 1.97 | G 2.44
E22: I 2.92 | V 2.84 | M 1.82 | W 1.71 | D 2.14 | P 4.66 | F 2.05 | Q 2.31 | T 3.01 | G 2.44

Variants of: B2
Assay: as above
Conditions: c terminus: a fixed tail appended

Protein stability index, by site and new letter:
A3: R 3.31 | I 2.84 | C 2.05 | K 2.42 | F 2.64 | T 2.21 | E 2.62 | S 2.81 | N 2.43 | Y 3.12 | V 3.02 | L 2.38 | H 2.44 | M 2.65 | P 1.98 | D 2.37 | W 2.55
L6: Q 3.48 | N 3.13 | V 2.13 | D 3.24 | G 2.14 | C 2.33 | W 3.52 | Y 3.21 | F 2.84 | P 2.79 | A 2.8 | I 2.5 | H 3.22 | K 2.38 | E 2.43 | S 3.91 | T 2.16
F1: C 2.46 | P 2.61 | E 3.64 | L 3.61 | G 3.04 | Q 3.03 | D 2.71 | N 3.06 | V 2.51 | H 3.02 | Y 2.99 | R 4.03 | I 3.76 | W 2.65 | M 2.59 | A 2.36 | K 2.5 | T 2.5
F4: Y 2.33 | I 2.65 | E 3.18 | H 2.26 | R 3.58 | M 2.64 | K 2.01 | T 3.63 | N 4.39 | P 4.46 | L 4.33 | A 2.54 | C 2.52 | W 3.22 | Q 2.23 | V 3.37 | D 4.88 | G 2.87
A5: H 2.52 | S 3.44 | V 2.75 | F 1.59 | Y 2.58 | R 2.84 | I 3.68 | C 2.67 | M 2.38 | W 3.11 | P 2.62 | D 3.05 | K 2.58 | N 1.4 | E 2.48 | L 2.47
M8: H 2.8 | C 2.4 | A 3.8 | F 2.67 | K 2.51 | I 2.88 | E 3.62 | G 1.97 | D 2.12 | L 2.67
V2: G 3.29 | R 2.37 | K 2.97 | C 2.5 | I 4.37 | P 3.21 | D 2.14 | E 2.27 | Q 2.65 | W 2.44 | A 2.72 | N 3.7 | F 2.7 | L 3.45 | S 2.71 | T 4.03
C7: R 3.23 | P 1.95 | I 2.35 | S 3.35 | T 2.6 | A 2.45 | Y 2.85 | H 3.27 | M 3.58 | L 2.99 | E 2.19 | F 2.43 | D 3.08 | N 4.12 | Q 3.11 | V 3.59 | K 2.46 | W 2.19
